Patent publication US20110104176A1 (SAMSUNG ELECTRONICS, published 2011)

Columns and labels:
[1] = biological target: human c-Met/Fc fusion protein (R&D Systems) (human) (UniProt P08581); experiment: ELISA, c-Met/Fc coated at 2 ug/ml, goat anti-mouse IgG-HRP, OPD
[2] = biological target: mouse c-Met/Fc fusion protein (R&D Systems) (mouse) (UniProt P16056); experiment: as above
[3] = biological target: T1, human c-Met protein (immobilized on a CM5 chip) (human, UniProt P08581 25-932, limits assumed); experiment: SPR (Biacore), human c-Met immobilized on a CM5 chip, antibody in flow
Experimental: (§1) A surface plasmon resonance (SPR) device (Biacore) was used to measure the binding affinity of the monoclonal antibody AbF46 prepared in Example 1 to human c-Met protein. The human c-Met protein was first immobilized on a CM5 chip, and the monoclonal antibody AbF46 was allowed to flow into a microfluidic chamber to obtain kₐ (on) and kb (off) values as illustrated in FIG. 2. Then, the Kd value was calculated from the kₐ and kb values. […] In addition, the Chi² value, which represents the reliability of the experiment, was 0.822 (in a Biacore analysis method, a Chi² value of 1 or less indicates high reliability of the data).

[4] = biological target: T1, human c-Met protein (immobilized on a …); experiment: SPR (Biacore), human c-Met immobilized on a CM5 chip, AbF46 flowed over
Experimental: as §1

T1 sequence (P08581 25-932 limits assumed): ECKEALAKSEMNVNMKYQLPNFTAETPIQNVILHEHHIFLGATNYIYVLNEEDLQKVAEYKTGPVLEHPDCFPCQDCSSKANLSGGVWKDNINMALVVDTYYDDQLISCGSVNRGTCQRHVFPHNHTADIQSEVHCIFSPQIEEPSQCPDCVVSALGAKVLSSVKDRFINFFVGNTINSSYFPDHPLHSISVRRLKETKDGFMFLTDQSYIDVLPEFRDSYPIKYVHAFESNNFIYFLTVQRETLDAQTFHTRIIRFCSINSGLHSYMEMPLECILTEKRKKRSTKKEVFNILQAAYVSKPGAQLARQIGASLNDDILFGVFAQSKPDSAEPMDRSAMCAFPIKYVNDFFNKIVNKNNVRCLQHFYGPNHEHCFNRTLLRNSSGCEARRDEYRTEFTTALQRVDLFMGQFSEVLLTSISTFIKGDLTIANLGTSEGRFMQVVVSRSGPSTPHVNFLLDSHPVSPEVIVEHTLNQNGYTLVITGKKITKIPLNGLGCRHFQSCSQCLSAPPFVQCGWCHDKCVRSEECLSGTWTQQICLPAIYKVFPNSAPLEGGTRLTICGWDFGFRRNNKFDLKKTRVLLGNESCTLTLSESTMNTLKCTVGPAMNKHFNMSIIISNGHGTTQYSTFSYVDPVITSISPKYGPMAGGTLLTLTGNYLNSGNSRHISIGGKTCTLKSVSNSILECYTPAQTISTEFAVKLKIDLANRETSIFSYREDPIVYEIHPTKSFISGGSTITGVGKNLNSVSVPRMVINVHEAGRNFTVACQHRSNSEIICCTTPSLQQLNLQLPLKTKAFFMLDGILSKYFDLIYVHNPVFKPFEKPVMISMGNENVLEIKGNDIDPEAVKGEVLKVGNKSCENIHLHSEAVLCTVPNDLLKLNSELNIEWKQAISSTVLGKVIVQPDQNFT
Sequence of human c-Met/Fc fusion protein (R&D Systems) (human) (P08581 25-932 limits assumed): as above
Sequence of mouse c-Met/Fc fusion protein (R&D Systems) (mouse) (P16056 25-931 limits assumed): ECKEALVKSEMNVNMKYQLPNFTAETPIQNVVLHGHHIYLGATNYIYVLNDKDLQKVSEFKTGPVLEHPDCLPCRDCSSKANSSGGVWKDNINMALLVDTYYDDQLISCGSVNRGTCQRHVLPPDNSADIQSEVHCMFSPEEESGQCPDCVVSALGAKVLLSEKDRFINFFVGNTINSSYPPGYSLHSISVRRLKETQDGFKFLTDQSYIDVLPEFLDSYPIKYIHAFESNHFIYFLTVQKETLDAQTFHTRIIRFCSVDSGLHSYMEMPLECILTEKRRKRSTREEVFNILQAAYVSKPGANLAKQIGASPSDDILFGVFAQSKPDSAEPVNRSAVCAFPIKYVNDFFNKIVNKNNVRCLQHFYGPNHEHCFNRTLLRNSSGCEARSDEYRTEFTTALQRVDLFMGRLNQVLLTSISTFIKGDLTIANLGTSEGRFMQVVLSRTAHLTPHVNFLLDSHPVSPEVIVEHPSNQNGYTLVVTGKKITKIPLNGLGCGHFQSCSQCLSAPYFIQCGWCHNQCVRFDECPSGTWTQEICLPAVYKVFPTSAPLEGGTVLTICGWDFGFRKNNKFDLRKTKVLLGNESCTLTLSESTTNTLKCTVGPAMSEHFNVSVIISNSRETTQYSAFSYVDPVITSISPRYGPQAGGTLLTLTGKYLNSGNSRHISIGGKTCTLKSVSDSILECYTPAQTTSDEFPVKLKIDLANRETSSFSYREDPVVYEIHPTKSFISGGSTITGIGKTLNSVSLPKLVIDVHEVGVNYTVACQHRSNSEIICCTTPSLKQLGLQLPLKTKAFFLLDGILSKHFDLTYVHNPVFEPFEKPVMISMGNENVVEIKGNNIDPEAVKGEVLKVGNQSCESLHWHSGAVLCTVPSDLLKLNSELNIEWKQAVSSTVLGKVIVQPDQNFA

5D5 (Genentech), monoclonal antibody against human c-Met
absorption at 450 nm [1]: 0.373 | absorption at 450 nm [2]: 0.113

B1: monoclonal antibody AbF46 (antibody, IgG1, V domains shown)
VH: EVKLVESGGGLVQPGGSLRLSCATSGFTFTDYYMSWVRQPPGKALEWLGFIRNKANGYTTEYSASVKGRFTISRDNSQSILYLQMDTLRAEDSATYYCARDNWFAYWGQGTLVTVSA
VL: DILMTQSPSSLTVSAGEKVTMSCKSSQSLLASGNQNNYLAWHQQKPGRSPKMLIIWASTRVSGVPDRFIGSGSGTDFTLTINSVQAEDLAVYYCQQSYSAPLTFGAGTKLELKR
notes: also called SAIT-MET-AbF46 (hybridoma cell line); antibody of hybridoma KCLRF-BP-00220
Kd [3]: 4 nM | koff [4]: 0.00155 s⁻¹ | kon [4]: 385000 M⁻¹ s⁻¹
